Measured values published in the Human Domainome abundance scans (Beltran et al. 2025).

B1: POU domain, class 5, transcription factor 1, residues 134 to 212; numbered along this chain, Q01860 (parent)
chain: EESQDIKALQKELEQFAKLLKQKRITLGYTQADVGLTLGVLFGKVFSQTTICRFEALQLSFKNMCKLRPLLQKWVEEAD

Variants of: B1
Experiment: abundance fitness (aPCA) (normalised: wild type 0, dead -1); higher = more abundant; growth selection in yeast, the domain comes from the species named
Conditions: Homo sapiens

Abundance fitness: each site, then its substitutions
F61: I 0.132 | P 0.202 | R -0.422 | V 0.031 | W -0.035 | T 0.063 | G -0.466 | A -0.147 | C -0.441 | L 0.036 | M 0.04 | E -0.8 | K -0.206 | Y -0.09 | N -0.275
L38: P -0.662 | C -0.029 | M 0.185 | Q -0.482 | V -0.52 | E -0.701 | K -0.603 | A -0.275 | R -0.511 | W -0.214 | S -0.37 | H -0.313 | G -0.832 | T -0.035
G43: R -0.613 | V -0.585 | S -0.651 | C -0.485 | N -0.341 | A -0.282 | K -0.516
E55: M -0.907 | I -0.365 | V -1.04 | R -0.607 | Q -0.498 | S -0.418 | K -0.495 | G -0.66 | W -0.555
L57: R -0.234 | K -0.45 | T -0.344 | M 0.152 | E -0.694 | N 0.261 | S -0.306 | Y 0.129 | V -0.066 | H 0.298 | W -0.355 | D -0.509 | G 0.094 | A -0.58 | P -0.005 | Q 0.106 | C 0.035
S60: L -0.265 | P 0.084 | I -0.284 | G -0.268 | W -0.381 | Q -0.415 | A -0.273 | E -0.173 | V -0.843 | D 0.197 | C -0.449 | R -0.556
T50: E 0.231 | G -0.601 | M -0.27 | H 0.017 | A -0.316 | V 0.015 | S -0.542 | Q -0.411 | C -0.298 | W -0.43 | R -0.756 | L -0.626
T49: W -0.259 | E 0.186 | P -0.281 | H 0.109 | Q 0.206 | V -0.272 | A 0.02 | C -0.524 | G -0.243 | K 0.235 | N -0.111 | S -0.072 | L -0.418 | D 0.044 | F -0.432
F42: M -0.607 | P -0.654 | R -0.627 | Y -0.028 | T 0.166 | E -0.493 | G -0.091 | L -0.469 | Q -0.875 | N -0.191 | W -0.165 | S -0.055 | K -0.262 | D -0.481 | V 0.127 | I -0.49 | C 0.092 | A -0.014
C52: A 0.424 | S 0.341 | Y -0.604 | R 0.47 | F -0.343 | K 0.356 | E 0.086 | N 0.175 | L -0.07 | M 0.451 | D 0.203
K62: R -0.143 | Q 0.046 | P -0.08 | V -0.24 | T -0.055 | H -0.19 | S 0.041 | E 0.038 | D 0.201 | L -0.579 | M 0.192 | G -0.146 | C -0.489 | I -0.238
V40: E 0.1 | L -0.045 | C 0.354 | W -0.151 | Y -0.237 | M -0.087 | S -0.026 | N 0.028 | G -0.01 | K 0.198 | H 0.12 | I 0.038 | D -0.621
R53: D -0.027 | P -0.287 | H 0.118 | E -0.078 | T -0.356 | S -0.467 | Q -0.074 | A -0.06 | K 0.029 | G -0.421
